Assay results reported in patent publication US9572342B2, “Use of an anthranilic diamide derivatives with heteroaromatic and heterocyclic substituents in combination with a biologicalcontrol agent” (BAYER INTELLECTUAL PROPERTY GMBH, priority 2011, dated 2017).

Columns and labels:
Assay type in all cases: in vivo
[1] = test system: mustard beetle larvae (Phaedon cochleariae); test: Phaedon cochleariae larvae - spray application (Example 1); conditions: 48 h, read-out: Mortality in % after 2d
Experimental: (§1) Solvent: 78.0 parts by weight of acetone
(§2) • 1.5 parts by weight of dimethylformamide Emulsifier: 0.5 parts by weight of alkylaryl polyglycolether
(§3) To produce a suitable preparation of active compound, 1 part by weight of active compound is mixed with the stated amount of solvent and emulsifier, and the concentrate is diluted with emulsifier-containing water to the desired concentration. The preparation of bacteria, fungi or yeast products contains 10^9-10^10 spores/g or cells/g, the preparation of the virus 10^13 particles/1. To produce a suitable preparation of a biological suspension the cells, viruses or spores are diluted with emulsifier-containing water to the desired concentration.
Chinese cabbage (Brassica pekinensis) leaf-discs are sprayed with a preparation of the active ingredient of the desired concentration. Once dry, the leaf discs are infested with mustard beetle larvae (Phaedon cochleariae).
After the specified period of time, mortality in % is determined. 100% means that all the beetle larvae have been killed; 0% means that none of the beetle larvae have been killed. The mortality values thus determined are recalculated using the Colby-formula.

[2] = test system: fall armyworm larvae (Spodoptera frugiperda); test: Spodoptera frugiperda - spray application (Example 2); conditions: 1.5 g ai/ha
Experimental: as §1, §2
as §3, with “preparation of the bacteria, fungi” for “preparation of bacteria, fungi”
Corn (Zea mais) leaf-discs are sprayed with a preparation of the active ingredient of the desired concentration. Once dry, the leaf discs are infested with fall armyworm larvae (Spodoptera frugiperda).
After the specified period of time, mortality in % is determined. 100% means that all the caterpillars have been killed; 0% means that none of the caterpillars have been killed. The mortality values thus determined are recalculated using the Colby-formula.

[3] = test system: two spotted spider mite (Tetranychus urticae); test: Tetranychus urticae test (OP-resistant, spray application) (Example 3); conditions: 1.5 g ai/ha
Experimental: Solvent: 78 parts by weight acetone
• 1.5 parts by weight dimethylformamide Wetting agent: 0.5 parts by weight alkylarylpolyglcolether
as §3, with “preparation of the bacteria, fungi” for “preparation of bacteria, fungi”, “spores/g or cells/g. To produce” for “spores/g or cells/g, the preparation of the virus 10^13 particles/1. To produce”
French beans (Phaseolus vulgaris) infected with all developmental stages of the two spotted spider mite (Tetranychus urticae), are sprayed with a preparation of the active ingredient at the desired dose rates.
After the specified period of time, activity in % is determined Thus 100% means that all spider mites have been killed and 0% means that none of the spider mites have been killed. The mortality values determined thus are recalculated using the Colby-formula (see sheet 1).

Row | Molecule | mortality at 1000 g/ha [1] [%] | Mortality in % after 2d [2] [%] | Mortality in % after 6d [3] [%]
1 | Cc1ccc(C(C)C)c(O)c1 [Thymol] | 0 | – | –
2 | Harpin: Harpin protein, isolated from Erwinia amylovora (products known as Messenger, ProAct, Employ) (protein, UniProt Q01099 1-403, looked up) Harpin HrpN: MSLNTSGLGASTMQISIGGAGGNNGLLGTSRQNAGLGGNSALGLGGGNQNDTVNQLAGLLTGMMMMMSMMGGGGLMGGGLGGGLGNGLGGSGGLGEGLSNALNDMLGGSLNTLGSKGGNNTTSTTNSPLDQALGINSTSQNDDSTSGTDSTSDSSDPMQQLLKMFSEIMQSLFGDGQDGTQGSSSGGKQPTEGEQNAYKKGVTDALSGLMGNGLSQLLGNGGLGGGQGGNAGTGLDGSSLGGKGLQNLSGPVDYQQLGNAVGTGIGMKAGIQALNDIGTHSDSSTRSFVNKGDRAMAKEIGQFMDQYPEVFGKPQYQKGPGQEVKTDDKSWAKALSKPDDDGMTPASMEQFNKAKGMIKSAMAGDTGNGNLQARGAGGSSLGIDAMMAGDAINNMALGKLGAA | – | 0 | 0
